According to PMC4666396, “Mammalian splicing factor SF1 interacts with SURP domains of U2 snRNP-associated proteins” (Nucleic Acids Research, 2015):

Legend:
Assay in all cases: pull-down; GST fusion proteins on glutathione-agarose; His6- or His6-MBP-tagged SF1 proteins in two-fold molar excess; NETN (20 mM Tris-HCl pH 8.0, 50 mM NaCl, 0.5% NP-40, 0.5 mM EDTA), 45 min 4°C; with or without RNase A; western blot with anti-His6
Settings in all cases: both partners purified
His6-SF1-C327 = molecular target: T1, His6-SF1-C327 (human, UniProt Q15637 1-327)
T1 construct: human SF1, C-terminal truncation to residue 327; SF1-C370 is 1–370; source: E. coli XL1-Blue, purified (TALON resin, lysis in 8 M urea, dialyzed); not shown: His6, N-terminal, kept
T1 sequence (looked up): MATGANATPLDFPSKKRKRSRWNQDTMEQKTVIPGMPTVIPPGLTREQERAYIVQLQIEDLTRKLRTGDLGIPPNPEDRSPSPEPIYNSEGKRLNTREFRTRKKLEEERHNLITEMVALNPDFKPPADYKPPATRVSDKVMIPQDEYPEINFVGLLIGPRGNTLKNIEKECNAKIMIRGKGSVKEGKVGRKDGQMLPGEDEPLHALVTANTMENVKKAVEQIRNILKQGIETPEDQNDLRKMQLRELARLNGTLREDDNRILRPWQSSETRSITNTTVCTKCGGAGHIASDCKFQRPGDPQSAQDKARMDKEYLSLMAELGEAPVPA

His6-SF1-C370 = molecular target: T2, His6-SF1-C370 (human, UniProt Q15637 1-370)
T2 construct: human SF1, amino acids 1–370, the region common to all SF1 isoforms; in pTrcHisA; source: E. coli XL1-Blue, purified (TALON resin, lysis in 8 M urea, dialyzed); not shown: His6, N-terminal, kept
T2 sequence (looked up): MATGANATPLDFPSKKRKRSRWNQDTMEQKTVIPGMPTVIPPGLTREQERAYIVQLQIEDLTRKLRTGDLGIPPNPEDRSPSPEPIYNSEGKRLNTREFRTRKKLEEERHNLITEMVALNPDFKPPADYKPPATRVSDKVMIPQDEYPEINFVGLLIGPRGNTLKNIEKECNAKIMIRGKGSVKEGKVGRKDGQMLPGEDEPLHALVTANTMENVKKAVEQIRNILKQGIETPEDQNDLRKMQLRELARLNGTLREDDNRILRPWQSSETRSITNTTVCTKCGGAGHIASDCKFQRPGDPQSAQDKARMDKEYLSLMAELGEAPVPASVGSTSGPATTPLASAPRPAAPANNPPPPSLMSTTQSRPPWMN

His6-SF1-C315 = molecular target: T3, His6-SF1-C315 (human, UniProt Q15637 1-315)
T3 construct: source: E. coli XL1-Blue, purified (TALON resin, lysis in 8 M urea, dialyzed); not shown: His6, N-terminal, kept
T3 sequence (looked up): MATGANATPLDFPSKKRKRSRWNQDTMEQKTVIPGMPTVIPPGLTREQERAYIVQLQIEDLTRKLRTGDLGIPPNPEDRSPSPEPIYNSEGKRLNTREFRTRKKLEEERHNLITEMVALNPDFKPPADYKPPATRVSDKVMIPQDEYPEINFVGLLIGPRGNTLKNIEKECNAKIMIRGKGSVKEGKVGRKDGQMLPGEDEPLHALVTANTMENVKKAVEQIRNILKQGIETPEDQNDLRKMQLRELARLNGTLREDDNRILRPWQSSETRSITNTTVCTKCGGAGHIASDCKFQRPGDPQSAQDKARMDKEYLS

[1] = molecular target: T4, His6-MBP-SF1-C370 Δ306–326 (human, UniProt Q15637 1-370, Δ306–326, replaced by one KpnI site encoding Gly and Thr)
T4 construct: in pETMBP-1a; source: E. coli BL21, purified (TALON resin, lysis in 8 M urea, dialyzed); not shown: His6, N-terminal, kept; MBP, N-terminal, kept
T4 sequence (looked up): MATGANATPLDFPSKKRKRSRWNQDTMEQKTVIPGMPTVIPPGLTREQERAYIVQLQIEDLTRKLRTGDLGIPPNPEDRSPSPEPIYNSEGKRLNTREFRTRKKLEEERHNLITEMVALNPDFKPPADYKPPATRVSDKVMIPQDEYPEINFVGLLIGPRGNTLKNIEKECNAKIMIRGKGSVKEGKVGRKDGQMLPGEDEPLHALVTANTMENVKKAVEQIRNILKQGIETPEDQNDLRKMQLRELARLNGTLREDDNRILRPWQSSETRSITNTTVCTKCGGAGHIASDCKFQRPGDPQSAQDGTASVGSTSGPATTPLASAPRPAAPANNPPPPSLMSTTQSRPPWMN

His6-SF1-C320 = molecular target: T5, His6-SF1-C320 (human, UniProt Q15637 1-320)
T5 construct: human SF1, C-terminal truncation to amino acid 320; it follows the naming of the other truncations; also called deletion to amino acid 320; source: E. coli XL1-Blue, purified (TALON resin, lysis in 8 M urea, dialyzed); not shown: His6, N-terminal, kept
T5 sequence (looked up): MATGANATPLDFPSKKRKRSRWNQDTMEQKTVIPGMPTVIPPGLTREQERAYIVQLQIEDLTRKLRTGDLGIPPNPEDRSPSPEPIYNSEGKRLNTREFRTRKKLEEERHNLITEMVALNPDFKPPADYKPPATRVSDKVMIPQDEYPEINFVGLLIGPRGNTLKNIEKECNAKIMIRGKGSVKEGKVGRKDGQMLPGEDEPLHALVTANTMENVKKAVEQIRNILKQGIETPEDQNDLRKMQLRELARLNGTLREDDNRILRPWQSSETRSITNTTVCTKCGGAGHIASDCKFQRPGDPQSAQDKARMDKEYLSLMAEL

His6-SF1-C302 = molecular target: T6, His6-SF1-C302 (human, UniProt Q15637 1-302)
T6 construct: source: E. coli XL1-Blue, purified (TALON resin, lysis in 8 M urea, dialyzed); not shown: His6, N-terminal, kept
T6 sequence (looked up): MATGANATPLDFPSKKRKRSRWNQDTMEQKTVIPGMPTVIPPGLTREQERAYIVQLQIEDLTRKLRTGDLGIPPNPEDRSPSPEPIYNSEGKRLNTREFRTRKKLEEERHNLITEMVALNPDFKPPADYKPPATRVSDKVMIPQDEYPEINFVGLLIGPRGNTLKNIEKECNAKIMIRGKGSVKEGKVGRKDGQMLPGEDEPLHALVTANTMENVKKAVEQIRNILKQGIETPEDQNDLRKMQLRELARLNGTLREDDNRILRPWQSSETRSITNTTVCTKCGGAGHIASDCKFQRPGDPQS

Measured: binding result

B1: GST-SF3a120-SURP1 (domain or fragment, UniProt Q15459 38-113, looked up)
chain: PVVGIIYPPPEVRNIVDKTASFVARNGPEFEARIRQNEINNPKFNFLNPNDPYHAYYRHKVSEFKEGKAQEPSAAI
notes: SURP1 of SF3a120, amino acids 38–113, in pDEST15; also called SURP1 of SF3a120; source: E. coli BL21, purified (glutathione agarose)
binds: His6-SF1-C327 | His6-SF1-C370

B2: GST-U2AF65-UHM (domain or fragment, UniProt P26368 367-475, looked up)
chain: QVQMGGHPTEVLCLMNMVLPEELLDDEEYEEIVEDVRDECSKYGLVKSIEIPRPVDGVEVPGCGKIFVEFTSVFDCQKAMQGLTGRKFANRVVVTKYCDPDSYHRRDFW
notes: U2AF homology motif (UHM) of U2AF65, amino acids 367–475; also called U2AF homology motif of U2AF65; source: E. coli XL1-Blue, purified (glutathione agarose)
binds: all assays above

B3: GST-CHERP-SURP (domain or fragment, UniProt Q8IWX8 1-75, looked up)
chain: MEMPLPPDDQELRNVIDKLAQFVARNGPEFEKMTMEKQKDNPKFSFLFGGEFYSYYKCKLALEQQQLICKQQTPE
notes: single SURP domain of CHERP, amino acids 1–75, in pDEST15; also called single SURP domain of CHERP; source: E. coli BL21, purified (glutathione agarose)
binds: His6-SF1-C327 | His6-SF1-C370
